Test results: patent publication US20230036503A1, “Fusion Protein, Amino Acid Sequence Thereof, Coding Nucleotide Sequence Thereof, Preparation Method Thereof and Use Thereof” (priority 2019, published 2023)

Test system: Fusarium graminearum
Format: in vivo
Conditions: corn leaves, 100 nM

B1: His-MP7: heptapeptide fusion protein, SEQ ID NO: 15: elf18, csp22, flg22, flgII-28, nlp20, pep1, pip1 in sequence, linkers GAG and AGA, HIS tag (protein)
chain: MGSSHHHHHHSSGLVPRGSHMASMTGGQQMGRDPNSSSVDKLSKEKFERTKPHVNVGTIGGAGAVGTVKWFNAEKGFGFITPDDGAGAQRLSTGSRINSAKDDAAGLQIAGAGESTNILQRMRELAVQSRNDSNSATDREAGAGAIMYSWYFPKDSPVTGLGHRAGAATKVKAKQRGKEKVSSGRPGQHNAGARLASGPSPRGRGH
modifications: his-MP7
For B1, the scab area percentage (3-4 days, untreated 12.3%) was 3.6% and the “infection rate of Fusarium graminearum lowered by” value (versus untreated) was 70.8%.
